Source: patent US20180305450A1 (AstraZeneca / MedImmune, published 2018)

Columns and labels:
[1] = molecular target: T1, recombinant biotinylated rat PAR2 extracellular residues 1-75, N-terminal AviTag, C-terminal Flag and poly … (rat, UniProt Q63645 26-75, not fully specified; biotin on the AviTag (enzymatic biotinylation)); assay: Biacore SPR 25 C, pH 6.0
T1 construct: range 1-75; not shown: N-terminal AviTag (Avidity LLC); C-terminal Flag and poly Histidine tags
T1 chain (looked up): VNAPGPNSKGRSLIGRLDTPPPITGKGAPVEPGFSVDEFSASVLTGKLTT

[2] = molecular target: T2, recombinant biotinylated human PAR2 extracellular domain (residues 1-75), N-terminal AviTag, C-terminal Flag … (human, UniProt P55085 26-75, biotin on the AviTag (enzymatic biotinylation)); assay: Biacore SPR 25 C, pH 6.0
T2 construct: also called Bio-human-PAR2 ECD; human PAR2 ECD; not shown: N-terminal AviTag (Avidity LLC); C-terminal Flag and poly Histidine tags
T2 sequence (P55085 26-75): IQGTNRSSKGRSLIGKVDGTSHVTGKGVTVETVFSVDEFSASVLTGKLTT

[3] = molecular target: T3, recombinant biotinylated cynomolgus (Macaca fascicularis) PAR2 extracellular residues 1-75, N-terminal … (cynomolgus (Macaca fascicularis)); assay: Biacore SPR 25 C, pH 6.0 (second row)
T3 construct: range 1-75; also called cynomolgus PAR2
Procedure: (§1) The experiments were carried out using recombinant human, rat and cynomolgus PAR2 with an N-terminal Avi tag and C-terminal Flag-His tags.
(§2) Streptavidin was covalently immobilised to a C1 chip surface using standard amine coupling techniques at a concentration of 4 μg/ml in 10 mM Sodium acetate pH 4.5. A final streptavidin surface of approximately 30-100 RUs was achieved. Recombinant biotinylated PAR2 species (produced in-house) were titrated onto the streptavidin chip surface at 4 μg/ml in HBS-EP+ buffer to enable Fab binding at saturation (Rₘₐₓ). This low level of analyte binding ensured minimal mass transport effects.
(§3) The anti-PAR2 Fabs were serially diluted (0.39 nM-25 nM) in HBS-EP+ buffer pH 7.4 or MES-BS-EP+ pH 6.0 buffer or in MES-BS-EP+ pH 5.6 buffer and flowed over the chip at 50 μl/min, with 3 minutes association and up to 30 minutes dissociation. Multiple buffer-only injections were made under the same conditions to allow for double reference subtraction of the final sensorgram sets, which were analysed using the BiaEval software (version 2.0.1). The chip surface was fully regenerated with pulses of 4 M MgCl₂.

[4] = molecular target: T2, recombinant biotinylated human PAR2 …; assay: Biacore SPR 25 C, pH 6.0 (second row)
Procedure: as §1, §2, §3

[5] = molecular target: T3, recombinant biotinylated cynomolgus …; assay: Biacore SPR 25 C, pH 5.6
Procedure: as §1, §2, §3

[6] = molecular target: T2, recombinant biotinylated human PAR2 …; assay: Biacore SPR 25 C, pH 5.6
Procedure: as §1, §2, §3

[7] = molecular target: T3, recombinant biotinylated cynomolgus …; assay: Biacore SPR 25 C, pH 7.4
Procedure: as §1, §2, §3

[8] = molecular target: T2, recombinant biotinylated human PAR2 …; assay: Biacore SPR 25 C, pH 7.4
Procedure: as §1, §2, §3

[9] = molecular target: T2, recombinant biotinylated human PAR2 …; assay: Biacore SPR 25 C, pH 7.4; pH 7.4; human; second determination
Procedure: as §1, §2, §3

[10] = molecular target: T3, recombinant biotinylated cynomolgus …; assay: Biacore SPR 25 C, pH 6.0
Procedure: as §1, §2, §3

[11] = molecular target: T2, recombinant biotinylated human PAR2 …; assay: Biacore SPR 25 C, pH 6.0; remark: listed apart in the source
Procedure: as §1, §2, §3

[12] = molecular target: T3, recombinant biotinylated cynomolgus …; assay: Biacore SPR 25 C, pH 7.4 (second row)
Procedure: as §1, §2, §3

[13] = molecular target: T2, recombinant biotinylated human PAR2 …; assay: Biacore SPR 25 C, pH 7.4 (second row)
Procedure: as §1, §2, §3

[14] = molecular target: T1, recombinant biotinylated rat PAR2 …; assay: Biacore SPR 25 C, pH 7.4
[15] = molecular target: T2, recombinant biotinylated human PAR2 …; assay: Biacore SPR 25 C, pH 7.4; remark: listed apart in the source

B1: PaB670129 Fab (Fab, V domains shown)
VH: EVQLLESGGGLVQPGGSLRLSCAASGFTFSSYAMNWVRQAPGKGLEWVSTISYHGSHISYHDSVHHRFTISRDNSKNTLYLQMNSLRAEDTAVYYCARIHHDPMDVWGQGTLVTVSS
VL: SIELTQPPSVSVSPGQTASITCSGDNLGKKYVQWYQQKPGQSPVLVIYDDSNRPSGIPERFSGSNSGNTATLTISGTQAMDEADYYCQTWDGNPTTGETNVFGGGTKLTVL
notes: Fab; also called ZZ1RUE-F02
**Q.** With B1 as the binder, how does the Kd [1] read?
**A.** The Kd was 57.9 nM.

**Q.** What about the koff [1] of the same binder?
**A.** The koff was 0.0841 s⁻¹.

**Q.** What about the kon [1] of the same binder?
**A.** Its kon is 1.45e+06 M⁻¹ s⁻¹.

**Q.** And the Kd [2]?
**A.** Its Kd is 34.8 nM.

**Q.** What about the koff [2] of the same binder?
**A.** The koff was 0.0554 s⁻¹.

**Q.** What about the kon [2] of the same binder?
**A.** The kon was 1.59e+06 M⁻¹ s⁻¹.

**Q.** And the Kd [3]?
**A.** The Kd was 13.6 nM.

**Q.** And the koff [3]?
**A.** The koff was 0.0236 s⁻¹.

**Q.** What about the kon [3] of the same binder?
**A.** Its kon is 1.74e+06 M⁻¹ s⁻¹.

**Q.** What about the Kd [4] of the same binder?
**A.** Its Kd is 33.5 nM.

**Q.** And the koff [4]?
**A.** The koff was 0.109 s⁻¹.

**Q.** What about the kon [4] of the same binder?
**A.** Its kon is 3.26e+06 M⁻¹ s⁻¹.

**Q.** And the Kd [5]?
**A.** Its Kd is 37.8 nM.

**Q.** And the koff [5]?
**A.** The koff was 0.139 s⁻¹.

**Q.** And the kon [5]?
**A.** The kon was 3.66e+06 M⁻¹ s⁻¹.

**Q.** And the Kd [6]?
**A.** Its Kd is 84.5 nM.

**Q.** What about the koff [6] of the same binder?
**A.** The koff was 0.112 s⁻¹.

**Q.** And the kon [6]?
**A.** The kon was 1.33e+06 M⁻¹ s⁻¹.

**Q.** What about the Kd [7] of the same binder?
**A.** The Kd was 0.333 nM.

**Q.** And the koff [7]?
**A.** The koff was 0.00223 s⁻¹.

**Q.** And the kon [7]?
**A.** The kon was 6.67e+06 M⁻¹ s⁻¹.

**Q.** And the Kd [8]?
**A.** The Kd was 0.748 nM.

**Q.** And the koff [8]?
**A.** The koff was 0.00534 s⁻¹.

**Q.** And the kon [8]?
**A.** The kon was 7.14e+06 M⁻¹ s⁻¹.

**Q.** What about the kon [9] of the same binder?
**A.** Its kon is 6.81e+06 M⁻¹ s⁻¹.

**Q.** What about the Kd [10] of the same binder?
**A.** The Kd was 12.8 nM.

**Q.** And the koff [10]?
**A.** Its koff is 0.0275 s⁻¹.

**Q.** And the kon [10]?
**A.** Its kon is 2.14e+06 M⁻¹ s⁻¹.

**Q.** And the Kd [11]?
**A.** The Kd was 36.9 nM.

**Q.** And the koff [11]?
**A.** The koff was 0.0576 s⁻¹.

**Q.** And the kon [11]?
**A.** Its kon is 1.56e+06 M⁻¹ s⁻¹.

**Q.** What about the Kd [12] of the same binder?
**A.** Its Kd is 0.335 nM.

**Q.** What about the koff [12] of the same binder?
**A.** Its koff is 0.00221 s⁻¹.

**Q.** What about the kon [12] of the same binder?
**A.** The kon was 6.59e+06 M⁻¹ s⁻¹.

**Q.** What about the Kd [13] of the same binder?
**A.** The Kd was 0.778 nM.

**Q.** What about the koff [13] of the same binder?
**A.** The koff was 0.0053 s⁻¹.

**Q.** And the Kd [14]?
**A.** Its Kd is 2.98 nM.

**Q.** What about the koff [14] of the same binder?
**A.** The koff was 0.0263 s⁻¹.

**Q.** And the kon [14]?
**A.** Its kon is 8.82e+06 M⁻¹ s⁻¹.

**Q.** What about the Kd [15] of the same binder?
**A.** The Kd was 0.614 nM.

**Q.** What about the koff [15] of the same binder?
**A.** Its koff is 0.00504 s⁻¹.

**Q.** What about the kon [15] of the same binder?
**A.** The kon was 8.2e+06 M⁻¹ s⁻¹.
